In patent US20090221691A1 (UNIVERSITY OF ROCHESTER, published 2009):

Molecular target: T1, biotinylated Gβ1γ2, wild-type (BAP-rat Gβ1 with Gγ2) (rat, UniProt P54311 1-340; P63212 2-68, biotin on the lysine acceptor residue of the BAP)
T1 construct: immobilized on streptavidin in the assays; also called b-βγ; b-Gβ1γ2; not shown: 20 amino acid biotin acceptor peptide (BAP) fused to the N-terminus
Test: flow cytometry competition, blocking Gα-Gβγ interactions
Method: Assays were used to determine peptide effects on Gα-Gβγ interactions included competition and dissociation assays (Ghosh, et al. (2003) supra). […] The bead-associated fluorescence was then recorded in a BD Biosciences FACSCALIBUR™ flow cytometer. Data was corrected for background fluorescence and fit with a sigmoid dose response curve using Graph Pad Prism 4.

## SIRKALNILAYPDYD (Free peptide) [SIRK(Gly10Ala)]
  IC50: ~80 µM
